The nanobody polyreactivity screen of Harvey et al. (2022)

Assay: yeast display, Sf9 membrane polyspecificity reagent, FACS + sequencing; frameworks hold sequencing errors
In short: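 A synthetic nanobody library was expressed on Saccharomyces cerevisiae BJ5465 by galactose induction for 36–48 hours. The library was stained for 1 hour at 4 °C with 10% biotinylated, detergent-solubilized Sf9 membrane reagent and enriched with streptavidin microbeads before FACS. Low and high (top ~1%) gates were set on anti-HA fluorescence for expression and streptavidin fluorescence for reagent binding, and each polyreactivity label reflects the gate of origin.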

| Sequence | polyreactivity (PSR sort gate) |
| --- | --- |
| QVQLVESGGGLVQAGGSLRLSCAPSGRIFPGYAMGWYRQAPGKERELVAAISTNGGRTYYADSVKGRFTISRDNAKNTVYLQMNSLKPEDTAVYYCNAARAVYTQKRFDSWGQGTQVTVSS | high polyreactivity |
| QVQLVESGGGLVQAGGSLRLSCAPSGRIFQWYAMGWYRQAPGKERELVAAIRNGGTTNYADSVKGRFTISRDNAKNTVYLQMNSVIPVDTAVYYCNADKYRTWDFQPRYPGGYWGQGTQVTVSS | low polyreactivity |
| QVQLVESGGGLVQAGGSLRLSCAPSGRIFSHYAMGWYRQAPGKERELVAAITSDGSTNYADSVKGRFTISRDNAKKTVYLQMNSLKPEDTAVYYSAKYVHIPDYYYLFGSYDYWGQGTQVTVSS | low polyreactivity |
| QVQLVESGGGLVQAGGSLRLSCAPSGRIFYGYAMGWYRQAPGKERELVAAITSGSRTNYADSVKGRFTISRDNAKNTVYLQMNSLKPEDTAVYYCHSLYGSYLYSLVHTSRYDYWGQGSQVTVSS | low polyreactivity |
| QVQLVESGGGLVQAGGSLRLSCAPSGRIIYRYAIGWYRQAPRKETDLVAAITIGGRTNYADSVKGRFTISRDNANNPVYLEMISLKPEDTAVYYCAVVLYTRYPPRVRYYYWGQGTQVTVSS | high polyreactivity |
| QVQLVESGGGLVQAGGSLRLSCAPSGRISFRYAMGWYRQAPGKERELVAAINRGGITNYADSVKGRFTISRDNAKNTVYLQMNSLKPEDTADYYCAAEGFYDYYNGFDYSGQGTQVTVSS | high polyreactivity |
| QVQLVESGGGLVQAGGSLRLSCAPSGRTFDQYAMGWYRQAPGKERELVADITWSGGTTRYADSVKGRFTISRDHAKNTVYLQMNSLKPEDTAVYYCAVEVTWGYNYWGQVTQVTVSS | low polyreactivity |
| QVQLVESGGGLVQAGGSLRLSCAPSGRTFGRYAMGWYRQAPGKERELVAAITRSGGSTYYADSVKGRFTISRDIAKNTVYLQMNSLKPEDTAVYYCNAGWRLGRGYWGQGTEVTVSS | high polyreactivity |
| QVQLVESGGGLVQAGGSLRLSCAPSGRTFGVYAMGWYRQAPGKERELVATISFNVASTYADSVKGRFTISRDNAKNTVYLQMNSLKPEDTAVYYCAVTAVRPLPLDSGYDYWGQGTQVTVSS | low polyreactivity |
| QVQLVESGGGLVQAGGSLRLSCAPSGRYYAMGWNRQAPGKEREMVAAISSGGSTNYADSVKGRFTISRDNAKNTVYLQMNSLKPEDTAVYYCAALIRQLRYYLYYYWGQGTQVTVSS | high polyreactivity |
| QVQLVESGGGLVQAGGSLRLSCAPSGSIFAQYAMGWYRQAPGKERELVATISSVGSTNYADSVKGRFTISRDNAKNTVYLQMNSLKPEDTAVYYCNAVRSGWGYFYGLNYWGQGTQVTVSS | low polyreactivity |
| QVQLVESGGGLVQAGGSLRLSCAPSGSIFDCNAMGWYRQAPGKERELVAAISVSGGSTYYADSVKGRFTISRDNAKNTVYLQMNSLKPEDKAVYYCAAETWTDGWYYDYWGQGTQVTVSS | high polyreactivity |
| QVQLVESGGGLVQAGGSLRLSCAPSGSIFGSYAMGWYRQAPGKERELVAAIRRSSASTYYADSVKGRFTISRDNAKNTVYLQMNSLKPEDTAVYYCATQSYSYYGYRYRYAAYDYWGQGTQVTVSS | high polyreactivity |
| QVQLVESGGGLVQAGGSLRLSCAPSGSIFGYYTMGCYRQAPGKEREFVAAISYSGGSTYYADSVKGRFTISRDNANNTVYLQMNSLKPEDTAVYYCAARLYYFRGFKYYYWGQGTQVTVSS | low polyreactivity |
| QVQLVESGGGLVQAGGSLRLSCAPSGSIFHYYAMGWYRQAPGKERELVAAISWSGGRTNYADSVKGRFTISSDNAKNTVYLQMNSLKPEDTAVYYCAAGNSFSDRGHRVYFQYYYWGQGTQVTVSS | high polyreactivity |
| QVQLVESGGGLVQAGGSLRLSCAPSGSIFIRNAMGWYRQAPGKERELVAAISGSGSSTYYADSVKGRFTISRDNAKNTVYLQMNSLKPEDTAVYYCNTDRTHSYQYGGYDYWGQGTQVTVSS | low polyreactivity |

| Sequence | polyreactivity (PSR sort gate) |
| --- | --- |
| QVQLVESGGGLVQAGGSLRLSCAPSGSIFRGYAMGWYRQAPGKERELVAAISSGGSTYYADSVKGRFTISRDNAKNTVDLQMNSLKPEDTAVYYCATSTYAYRRISYYSWGQCTQVTVSS | high polyreactivity |
| QVQLVESGGGLVQAGGSLRLSCAPSGSIFRLYAMGWYRQAPGKERELVAAITSSGGRTYYADSVKGRFTISRDNAKNTVYLQINSLKPVDTAVYYCAAVGNRGDDYYWGQGTQVTVSS | high polyreactivity |
| QVQLVESGGGLVQAGGSLRLSCAPSGSIFRWYAMGWYRQAPGKERELVAAITSGGSTYYADSVKGRFTISRDNAKNTVYVQMNSLKPEDTAVYYCNAAKLASHTYDYWGQGTQVTVSS | low polyreactivity |
| QVQLVESGGGLVQAGGSLRLSCAPSGSILGSNAMGGYRQAPGKERELVAAITSSGGSTYYADSVKGRFTISRDNAKNTVYLQMNSLKPEDTAVYYCNADATDSYPEKDYHDSWGQGTQVTVSS | low polyreactivity |
| QVQLVESGGGLVQAGGSLRLSCAPSGSIYDDYAMGWYRQAPGKERELVAAISSSGTSTYYADSVKGRFTISRDNAKNTVYLQMIRLKPEDTAGYYCAARSAILKSGYLMDYWGQGTLVTVSS | low polyreactivity |
| QVQLVESGGGLVQAGGSLRLSCAPSGSTFGSNAMGWYRQAPGKERELVAAINSGDSTSYADSVKGRFTISRDNAKNTVYLQMNSLKPEDTAGYYCATRSYTFVWRHDYWGQGTQVTVSS | low polyreactivity |
| QVQLVESGGGLVQAGGSLRLSCAPSGSTFGWYAMGWYRQAPGKESELFAAITGDSASTYYADSVKGRFTISRDNAKNTVYLQMNSLKQEDTAVYYCAATKFSDFAYEAVIGYGYWGQGTQVTVSS | low polyreactivity |
| QVQLVESGGGLVQAGGSLRLSCAPSGSTFSGYAMGWYRQAPGKEREFVATISISGCSTYYADSVKGRFTISRDNAKNTVYLQMNSLKPEDTAVYYCAKDSGSYRVGIYEPFPYGYWGQGTQVTVSS | low polyreactivity |
| QVQLVESGGGLVQAGGSLRLSCAPSGSTFSHNAMGWYRQAPGKEREFVAAISWSGGGTYADSVKGRFTISRDYAKNTVYLQMNSLKPEDTAVYYCNKVSYRSSSSSWFDYWGQGTQVTVSS | low polyreactivity |
| QVQLVESGGGLVQAGGSLRLSCAPSGSTFTHNALGWYRQAPGKERELVAAINNRGGTTYYADSVKGRFTISRDNAKNTVLLQMNSLKPEDIAVYYCNARYHYGRYGYWGQGTQVTVSS | high polyreactivity |
| QVQLVESGGGLVQAGGSLRLSCAPSGSTFYPYAMGWYRQAPGKEREFVAAIRSSGTSTYYADSVKGRFTISRDNAKNTVYLQMNSLKPEDTAVYYCAARVRGYSVTRTKPASIGGGSWGQGTQVTVSS | high polyreactivity |
| QVQLVESGGGLVQAGGSLRLSCAPSGSTFYRYAMGWYRQAPGKERELVAAISSSGGRTYYADSVKGRFTISRDNAKNTDYLQMNSLKPEDTAVYYCAADYTKHYWGQGTQVTVSS | high polyreactivity |
| QVQLVESGGGLVQAGGSLRLSCAPSGSTSYLYAMGWYRQAPGKERELVATITTRSGSTYYADSVKGRFTISRDNAKNTVYIQMNSLKPEDTAVYYCAARWISVWSEGAEHDYWGQGTQVTVSS | low polyreactivity |
| QVQLVESGGGLVQAGGSLRLSCAPSRFIFFFYAMGWYRQAPGKERELVAAISDGVSTYYADSVKGRFTISRDNAKNTVYLQKNSLKPDDTAVYYCAVSRGDDPEFDYWGKGTQVTVSS | low polyreactivity |
| QVQLVESGGGLVQAGGSLRLSCAPSRFIFGHYAMGWYRQAPGKERELVAGINSSGGSTHYADSVKGRFTISRDNAKNTVYLQMNSLKPEDTAVYYCAADVYRFYAGSRYYYWGQGTQVTVSS | low polyreactivity |
